# From patent publication US20240400651A1 (VAL CHUM LIMITED PARTNERSHIP, published 2024)
# B1: Mab #1 (antibody, V domains shown)
# VH: EVQLVESGPEVKKPGTSVKVPCKASGFTFTSSAVQWVRQARGQRLEWIGWIVVGSGNTNYAQKFQERVTITRDMSTSTAYMELSSLRSEDTAVYYCAAPSCSGGRCYDGFDIWGQGTMVTVSS
# VL: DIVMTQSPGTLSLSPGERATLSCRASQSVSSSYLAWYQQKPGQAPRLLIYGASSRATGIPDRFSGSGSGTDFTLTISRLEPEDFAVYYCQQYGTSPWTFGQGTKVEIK
# Biological target: SARS-CoV-2 receptor binding domain (RBD), residues 319-591 of SARS-CoV-2 S (SARS-CoV-2, UniProt P0DTC2 319-591)
# Test: BLI, mAb on anti-human Fc probe (FIGS. 5A-E)
binder,measurement,value
B1,binding result,binds
